Test results reported in patent US20230414702A1 (INSERM INSTITUT NATIONAL DE LA SANT ET DE LA REC HERCHE M …, published 2023).
Non-standard residues stand in square brackets, D forms with d. No end group written: not given here. NMeR = CN[C@@H](CCCNC(=N)N)C(=O)O; Nle = CCCC[C@H](N)C(=O)O

Columns and labels:
CD47 receptor [1] = target: T1, CD47 receptor (UniProt Q08722 19-323, limits assumed); assay: column Kd(µM)PR; binding to MEC-1 membrane preparation, method not named in Table 4
T1 construct: whole, on cells; The assays used a whole MEC-1 cell membrane preparation, not purified CD47; also called membrane preparation from MEC-1 cells

CD47 receptor [2] = target: T1, CD47 receptor; assay: column Kd (OR); biolayer interferometry on Octet RED96, biotinylated MEC-1 membrane preparation on SSA biosensors
CD47 receptor [3] = target: T1, CD47 receptor; assay: binding to MEC-1 membrane preparation; method not named in Table 3 (same value as the OR column of Table 2)
CD47 receptor [4] = target: T1, CD47 receptor; assay: microscale thermophoresis (MST), labeled MEC-1 membrane preparation
Protocol: (§1) For all experiments the concentration of the NT.115-labeled membrane was kept constant, while the concentrations of the ligand (peptide) was varied. After a short incubation time (5 min) the samples were loaded into MST premium glass capillaries and the MST analysis was performed using the Monolith NT.115.

CD47 receptor [5] = target: T1, CD47 receptor; assay: binding to MEC-1 membrane preparation; method not named in Table 3
CD47 receptor [6] = target: T1, CD47 receptor; assay: apparent Kd, biolayer interferometry (BI) on Octet RED96, biotinylated MEC-1 membrane preparation on SSA biosensors
From the text: This system monitors interference of light reflected from two sources (an internal reflection surface and the liquid/solid interface of a fiber optic sensor) to measure the rate of binding of molecules to the biosensor surface. MEC-1 cells membrane preparation is biotinylated with the EZ-Link NHS-PEG4-Biotin kit from Thermo-Scientific and excess biotin is removed using desalting column from Thermo-Scientific. […] Typically, the biosensors were pre-equilibrated in PBS containing either biotinylated membranes or biocytine 100 μg/mL. Biosensors are then equilibrated in assay buffer for 10 min, brought to baseline in assay buffer for 60 sec. and transferred to wells containing peptide in dose-response (association for 120 sec. and dissociation for 300 sec.). The double reference with either membrane-loaded biosensors without any peptide dose-response or biocytine-loaded biosensors with each peptide dose-response were run in parallel for background signal double subtractions.

CD47 receptor [7] = target: T1, CD47 receptor; assay: apparent Kd, microscale thermophoresis (MST), Monolith NT.115, NT.115-labeled membrane
Protocol: as §1

T1 sequence (Q08722 19-323 limits assumed): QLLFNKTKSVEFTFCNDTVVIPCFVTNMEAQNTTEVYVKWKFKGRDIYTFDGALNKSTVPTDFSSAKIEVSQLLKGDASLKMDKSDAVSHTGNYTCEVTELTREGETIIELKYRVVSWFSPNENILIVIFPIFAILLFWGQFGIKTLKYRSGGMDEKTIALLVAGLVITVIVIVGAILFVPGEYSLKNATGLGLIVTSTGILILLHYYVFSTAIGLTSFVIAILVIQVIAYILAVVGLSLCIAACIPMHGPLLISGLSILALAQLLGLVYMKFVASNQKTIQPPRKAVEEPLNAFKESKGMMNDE

B1: PKT15, H-(D)K ψ(CONMe)R F Y V V M W ψ(CONMe)K (D)K-OH (peptide)
peptide: KRFYVVMWKK
modifications: (D)-Lys at positions 1 and 10; N-methyl pseudopeptide bonds ψ(CONMe) between (D)Lys1 and Arg2 and between Trp8 and Lys9
Work on B1 yielded a Kd (CD47 receptor [1]) of 16 µM.

In the case of KRFYVVMWKK ((D)-Lys at position 1 and (D)-Lys at position 10, also called 4(PKHB1)) [PKHB1, H-(D)K R F Y V V M W K (D)K-OH], the Kd (CD47 receptor [2]) is reported as 43 µM, the Kd (CD47 receptor [3]) is reported as 43 µM and the Kd (CD47 receptor [1]) is reported as 22.6 µM. For the same binder, the Kd (CD47 receptor [4]) was 3.04 µM.

B2: M/Nle, kRFYVV(Nle)WKk (peptide)
peptide: H-[dK]RFYVV[Nle]WK[dK]-OH
SMILES: CCCC[C@H](NC(=O)[C@@H](NC(=O)[C@@H](NC(=O)[C@H](Cc1ccc(O)cc1)NC(=O)[C@H](Cc1ccccc1)NC(=O)[C@H](CCCNC(=N)N)NC(=O)[C@H](N)CCCCN)C(C)C)C(C)C)C(=O)N[C@@H](Cc1c[nH]c2ccccc12)C(=O)N[C@@H](CCCCN)C(=O)N[C@H](CCCCN)C(=O)O
B2 was tested, and the Kd (CD47 receptor [5]) was 18 µM.

Ac-KRFYVVMWKK-NH2 [peptide 2, Ac-KRFYVVMWKK-NH2] was tested, and the Kd (CD47 receptor [2]) was 40 µM and the Kd (CD47 receptor [4]) was 1.2 µM.

B3: PKT11, H-(D)K ψ(CONMe)R F Y V V M W K (D)K-OH (peptide)
peptide: KRFYVVMWKK
modifications: (D)-Lys at positions 1 and 10; N-methyl pseudopeptide bond ψ(CONMe) between (D)Lys1 and Arg2
Binder B3 has a Kd (CD47 receptor [1]) of 21.7 µM.

Work on H-[dK][NMeR]FYVV[Nle]WK[dK]-OH [PKT16, H-(D)K ψ(CONMe)R F Y V V X W K (D)K-OH] yielded a Kd (CD47 receptor [6]) of 7.4 µM, a Kd (CD47 receptor [1]) of 12.1 µM and a Kd (CD47 receptor [7]) of 1.6 µM.

B4: 4N1K (peptide)
peptide: KRFYVVMWKK
notes: Decapeptide that mimics the C-terminal domain of TSP-1
B4 was tested, and the Kd (CD47 receptor [2]) was 19 µM, the Kd (CD47 receptor [3]) was 19 µM and the Kd (CD47 receptor [4]) was 2.28 µM.

Work on [dK]RFYVVAWK[dK] (Ala-scan analogue of PKHB1) [M7/A, kRFYVV(A)WKk] yielded a Kd (CD47 receptor [5]) of 42 µM.

B5: PKT17, H-(D)K ψ(CONMe)R F Y V V L W K (D)K-OH (peptide)
peptide: H-[dK][NMeR]FYVVLWK[dK]-OH
SMILES: CC(C)C[C@H](NC(=O)[C@@H](NC(=O)[C@@H](NC(=O)[C@H](Cc1ccc(O)cc1)NC(=O)[C@H](Cc1ccccc1)NC(=O)[C@H](CCCNC(=N)N)N(C)C(=O)[C@H](N)CCCCN)C(C)C)C(C)C)C(=O)N[C@@H](Cc1c[nH]c2ccccc12)C(=O)N[C@@H](CCCCN)C(=O)N[C@H](CCCCN)C(=O)O
For B5, the Kd (CD47 receptor [1]) was 12 µM.

B6: K9/A, kRFYVVMW(A)k (peptide)
peptide: H-[dK]RFYVVMWA[dK]-OH
SMILES: CSCC[C@H](NC(=O)[C@@H](NC(=O)[C@@H](NC(=O)[C@H](Cc1ccc(O)cc1)NC(=O)[C@H](Cc1ccccc1)NC(=O)[C@H](CCCNC(=N)N)NC(=O)[C@H](N)CCCCN)C(C)C)C(C)C)C(=O)N[C@@H](Cc1c[nH]c2ccccc12)C(=O)N[C@@H](C)C(=O)N[C@H](CCCCN)C(=O)O
notes: Ala-scan analogue of PKHB1
B6 gave a Kd (CD47 receptor [5]) of 27 µM.

B7: R2/A, k(A)FYVVMWKk (peptide)
peptide: H-[dK]AFYVVMWK[dK]-OH
SMILES: CSCC[C@H](NC(=O)[C@@H](NC(=O)[C@@H](NC(=O)[C@H](Cc1ccc(O)cc1)NC(=O)[C@H](Cc1ccccc1)NC(=O)[C@H](C)NC(=O)[C@H](N)CCCCN)C(C)C)C(C)C)C(=O)N[C@@H](Cc1c[nH]c2ccccc12)C(=O)N[C@@H](CCCCN)C(=O)N[C@H](CCCCN)C(=O)O
notes: Ala-scan analogue of PKHB1
For B7, the Kd (CD47 receptor [5]) was 6.2 µM.
